US20220010021A1 (Sanofi, published 2022)
Substitutions are numbered along the chain they refer to.

T1: human beta-Klotho (KLB) (human, UniProt Q86Z14 53-997)
T1 construct: Bought protein; also called human KLB; β-Klotho
T1 sequence (looked up): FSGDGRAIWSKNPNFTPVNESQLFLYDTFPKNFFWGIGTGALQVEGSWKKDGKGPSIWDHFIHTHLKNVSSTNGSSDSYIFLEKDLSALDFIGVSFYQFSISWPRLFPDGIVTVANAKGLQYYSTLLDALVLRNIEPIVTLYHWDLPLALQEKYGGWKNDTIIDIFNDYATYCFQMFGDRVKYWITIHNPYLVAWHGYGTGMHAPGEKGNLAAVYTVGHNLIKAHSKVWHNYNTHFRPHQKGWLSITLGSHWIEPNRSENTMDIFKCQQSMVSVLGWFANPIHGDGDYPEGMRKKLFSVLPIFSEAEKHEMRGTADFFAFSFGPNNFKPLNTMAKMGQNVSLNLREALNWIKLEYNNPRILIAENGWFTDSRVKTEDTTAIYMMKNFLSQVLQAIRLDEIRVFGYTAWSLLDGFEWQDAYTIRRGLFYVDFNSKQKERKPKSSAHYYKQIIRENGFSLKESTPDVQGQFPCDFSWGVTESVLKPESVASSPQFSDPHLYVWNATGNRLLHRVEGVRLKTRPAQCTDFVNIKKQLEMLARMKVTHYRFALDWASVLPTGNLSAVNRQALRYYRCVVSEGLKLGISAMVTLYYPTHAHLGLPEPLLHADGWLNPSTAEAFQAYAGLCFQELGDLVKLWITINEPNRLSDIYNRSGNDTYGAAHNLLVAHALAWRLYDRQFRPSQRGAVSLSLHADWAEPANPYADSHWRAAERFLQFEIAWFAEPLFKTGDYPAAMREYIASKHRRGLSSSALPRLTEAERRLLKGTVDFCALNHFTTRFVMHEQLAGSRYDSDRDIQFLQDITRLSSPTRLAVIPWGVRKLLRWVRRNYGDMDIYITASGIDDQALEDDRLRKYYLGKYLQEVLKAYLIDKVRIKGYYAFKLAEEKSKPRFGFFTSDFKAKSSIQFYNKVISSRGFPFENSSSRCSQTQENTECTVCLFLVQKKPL

B1: 16H7 light chain variant H96S (antibody, IgG4, V domains shown)
VH: not shown
VL: SYVLTQPPSVSVAPGQTARITCGGNNIGSESVHWYQQKPGQAPVLVVYDDSDRPSGIPERFSGSNSGNTATLTISRVEAGDEADYYCQVWDGNSDSVVFGGGTKLTVLG
notes: IgG4 backbone
B2: 16H7 light chain variant N93V (antibody, IgG4, V domains shown)
VH: not shown
VL: B1 VL with N93V, S96H
notes: IgG4 backbone
B3: 16H7 light chain variant S31N (antibody, IgG4, V domains shown)
VH: not shown
VL: B1 VL with S31N, S96H
notes: IgG4 backbone
B4: 16H7 light chain variant S51T (antibody, IgG4, V domains shown)
VH: not shown
VL: B1 VL with S51T, S96H
notes: IgG4 backbone
B5: 16H7 light chain variant S51I (antibody, IgG4, V domains shown)
VH: not shown
VL: B1 VL with S51I, S96H
notes: IgG4 backbone
B6: 16H7 light chain variant S94E (antibody, IgG4, V domains shown)
VH: not shown
VL: B1 VL with S94E, S96H
notes: IgG4 backbone
B7: 16H7 light chain variant H96V (antibody, IgG4, V domains shown)
VH: not shown
VL: B1 VL with S96V
notes: IgG4 backbone
B8: 16H7 light chain variant S94V (antibody, IgG4, V domains shown)
VH: not shown
VL: B1 VL with S94V, S96H
notes: IgG4 backbone
B9: 16H7 light chain variant N93D (antibody, IgG4, V domains shown)
VH: not shown
VL: B1 VL with N93D, S96H
notes: IgG4 backbone
B10: 16H7 light chain variant S94G (antibody, IgG4, V domains shown)
VH: not shown
VL: B1 VL with S94G, S96H
notes: IgG4 backbone
B11: 16H7 light chain variant S51R (antibody, IgG4, V domains shown)
VH: not shown
VL: B1 VL with S51R, S96H
notes: IgG4 backbone
B12: 16H7 light chain variant S94M (antibody, IgG4, V domains shown)
VH: not shown
VL: B1 VL with S94M, S96H
notes: IgG4 backbone
B13: 16H7 light chain variant S94R (antibody, IgG4, V domains shown)
VH: not shown
VL: B1 VL with S94R, S96H
notes: IgG4 backbone
B14: 16H7 light chain variant S31H (antibody, IgG4, V domains shown)
VH: not shown
VL: B1 VL with S31H, S96H
notes: IgG4 backbone
B15: 16H7 light chain variant S94T (antibody, IgG4, V domains shown)
VH: not shown
VL: B1 VL with S94T, S96H
notes: IgG4 backbone
B16: 16H7 light chain variant N93S (antibody, IgG4, V domains shown)
VH: not shown
VL: B1 VL with N93S, S96H
notes: IgG4 backbone
B17: 16H7 light chain variant N93C (antibody, IgG4, V domains shown)
VH: not shown
VL: B1 VL with N93C, S96H
notes: IgG4 backbone
B18: 16H7 light chain variant S94L (antibody, IgG4, V domains shown)
VH: not shown
VL: B1 VL with S94L, S96H
notes: IgG4 backbone
B19: 16H7 light chain variant N93A (antibody, IgG4, V domains shown)
VH: not shown
VL: B1 VL with N93A, S96H
notes: IgG4 backbone
B20: 16H7 light chain variant N93Y (antibody, IgG4, V domains shown)
VH: not shown
VL: B1 VL with N93Y, S96H
notes: IgG4 backbone
B21: 16H7 light chain variant S94A (antibody, IgG4, V domains shown)
VH: not shown
VL: B1 VL with S94A, S96H
notes: IgG4 backbone
B22: 16H7 light chain variant H96T (antibody, IgG4, V domains shown)
VH: not shown
VL: B1 VL with S96T
notes: IgG4 backbone
B23: 16H7 light chain variant S51L (antibody, IgG4, V domains shown)
VH: not shown
VL: B1 VL with S51L, S96H
notes: IgG4 backbone
B24: 16H7 light chain variant S94I (antibody, IgG4, V domains shown)
VH: not shown
VL: B1 VL with S94I, S96H
notes: IgG4 backbone
B25: 16H7 light chain variant S94N (antibody, IgG4, V domains shown)
VH: not shown
VL: B1 VL with S94N, S96H
notes: IgG4 backbone
B26: 16H7 light chain variant H96Y (antibody, IgG4, V domains shown)
VH: not shown
VL: B1 VL with S96Y
notes: IgG4 backbone
B27: 16H7 light chain variant N93R (antibody, IgG4, V domains shown)
VH: not shown
VL: B1 VL with N93R, S96H
notes: IgG4 backbone
B28: 16H7 light chain variant N93F (antibody, IgG4, V domains shown)
VH: not shown
VL: B1 VL with N93F, S96H
notes: IgG4 backbone
B29: 16H7 light chain variant S94F (antibody, IgG4, V domains shown)
VH: not shown
VL: B1 VL with S94F, S96H
notes: IgG4 backbone
B30: 16H7 light chain variant S51N (antibody, IgG4, V domains shown)
VH: not shown
VL: B1 VL with S51N, S96H
notes: IgG4 backbone
B31: 16H7 light chain variant S51Q (antibody, IgG4, V domains shown)
VH: not shown
VL: B1 VL with S51Q, S96H
notes: IgG4 backbone
B32: 16H7 light chain variant N93T (antibody, IgG4, V domains shown)
VH: not shown
VL: B1 VL with N93T, S96H
notes: IgG4 backbone
B33: 16H7 light chain variant S94D (antibody, IgG4, V domains shown)
VH: not shown
VL: B1 VL with S94D, S96H
notes: IgG4 backbone
B34: 16H7 light chain variant S94C (antibody, IgG4, V domains shown)
VH: not shown
VL: B1 VL with S94C, S96H
notes: IgG4 backbone
B35: 16H7 light chain variant H96W (antibody, IgG4, V domains shown)
VH: not shown
VL: B1 VL with S96W
notes: IgG4 backbone

Target: T1, human beta-Klotho (KLB)
Assay: BLI off-rate screening (Octet), crude supernatant;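 also: supernatants tested at 25 µg/mL, dissociation from biosensors recorded in D-PBS with 0.1% BSA over 1800 s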

| Binder | koff |
| --- | --- |
| B1 | 3e-05 s⁻¹ |
| B2 | 4e-05 s⁻¹ |
| B3 | 7.6e-05 s⁻¹ |
| B4 | 2.5e-05 s⁻¹ |
| B5 | 5e-05 s⁻¹ |
| B6 | 1.4e-05 s⁻¹ |
| B7 | 4.1e-05 s⁻¹ |
| B8 | 2.8e-05 s⁻¹ |
| B9 | 3.8e-05 s⁻¹ |
| B10 | 6.8e-05 s⁻¹ |
| B11 | 0.00012 s⁻¹ |
| B12 | 1.2e-05 s⁻¹ |
| B13 | 5.7e-05 s⁻¹ |
| B14 | 4.5e-05 s⁻¹ |
| B15 | 3.2e-05 s⁻¹ |
| B16 | 3.4e-05 s⁻¹ |
| B17 | 5.8e-05 s⁻¹ |
| B18 | 4.4e-05 s⁻¹ |

| Binder | koff |
| --- | --- |
| B19 | 7.5e-06 s⁻¹ |
| B20 | 6.5e-05 s⁻¹ |
| B21 | 4.6e-05 s⁻¹ |
| B22 | 1.8e-05 s⁻¹ |
| B23 | 9.6e-05 s⁻¹ |
| B24 | 4.3e-05 s⁻¹ |
| B25 | 3.3e-05 s⁻¹ |
| B26 | 6.9e-05 s⁻¹ |
| B27 | 5e-05 s⁻¹ |
| B28 | 2.2e-06 s⁻¹ |
| B29 | 1e-07 s⁻¹ |
| B30 | 5.3e-05 s⁻¹ |
| B31 | 6.5e-05 s⁻¹ |
| B32 | 3.1e-05 s⁻¹ |
| B33 | 3.4e-05 s⁻¹ |
| B34 | 1e-07 s⁻¹ |
| B35 | 0.00012 s⁻¹ |

Target: cell surface receptor composed of FGFR1c and co-receptor beta-Klotho (KLB) (human, UniProt P11362 22-822; Q86Z14 1-1044); as to Mean E max, Luciferase reporter gene assay: reference of the scale not given here
Assay: cell-based or functional assay

cell surface receptor composed of FGFR1c and co-receptor beta-Klotho (KLB), sequence (P11362 22-822, chain 1 of 2): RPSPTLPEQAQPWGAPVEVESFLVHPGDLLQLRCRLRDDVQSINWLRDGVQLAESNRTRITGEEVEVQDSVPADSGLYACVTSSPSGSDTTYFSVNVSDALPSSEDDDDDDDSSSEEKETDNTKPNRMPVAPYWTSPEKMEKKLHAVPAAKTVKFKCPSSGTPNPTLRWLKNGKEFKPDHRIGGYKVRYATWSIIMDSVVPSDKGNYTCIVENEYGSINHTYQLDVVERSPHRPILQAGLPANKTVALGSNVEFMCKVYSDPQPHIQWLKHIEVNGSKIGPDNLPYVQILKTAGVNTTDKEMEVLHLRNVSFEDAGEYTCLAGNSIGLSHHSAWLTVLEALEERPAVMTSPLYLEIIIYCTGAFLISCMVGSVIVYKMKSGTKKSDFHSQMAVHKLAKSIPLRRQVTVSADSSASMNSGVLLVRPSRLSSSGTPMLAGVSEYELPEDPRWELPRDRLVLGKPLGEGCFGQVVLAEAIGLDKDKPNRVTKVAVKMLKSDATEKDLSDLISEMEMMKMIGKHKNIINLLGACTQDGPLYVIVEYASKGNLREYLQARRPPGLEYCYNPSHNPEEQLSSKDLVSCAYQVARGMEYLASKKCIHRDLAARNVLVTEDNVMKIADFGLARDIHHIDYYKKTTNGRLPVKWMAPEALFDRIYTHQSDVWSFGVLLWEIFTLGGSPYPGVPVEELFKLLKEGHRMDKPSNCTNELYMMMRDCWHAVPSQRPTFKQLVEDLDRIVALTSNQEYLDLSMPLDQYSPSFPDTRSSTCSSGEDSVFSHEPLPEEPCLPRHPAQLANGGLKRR
cell surface receptor composed of FGFR1c and co-receptor beta-Klotho (KLB), sequence (Q86Z14 whole entry, chain 2 of 2): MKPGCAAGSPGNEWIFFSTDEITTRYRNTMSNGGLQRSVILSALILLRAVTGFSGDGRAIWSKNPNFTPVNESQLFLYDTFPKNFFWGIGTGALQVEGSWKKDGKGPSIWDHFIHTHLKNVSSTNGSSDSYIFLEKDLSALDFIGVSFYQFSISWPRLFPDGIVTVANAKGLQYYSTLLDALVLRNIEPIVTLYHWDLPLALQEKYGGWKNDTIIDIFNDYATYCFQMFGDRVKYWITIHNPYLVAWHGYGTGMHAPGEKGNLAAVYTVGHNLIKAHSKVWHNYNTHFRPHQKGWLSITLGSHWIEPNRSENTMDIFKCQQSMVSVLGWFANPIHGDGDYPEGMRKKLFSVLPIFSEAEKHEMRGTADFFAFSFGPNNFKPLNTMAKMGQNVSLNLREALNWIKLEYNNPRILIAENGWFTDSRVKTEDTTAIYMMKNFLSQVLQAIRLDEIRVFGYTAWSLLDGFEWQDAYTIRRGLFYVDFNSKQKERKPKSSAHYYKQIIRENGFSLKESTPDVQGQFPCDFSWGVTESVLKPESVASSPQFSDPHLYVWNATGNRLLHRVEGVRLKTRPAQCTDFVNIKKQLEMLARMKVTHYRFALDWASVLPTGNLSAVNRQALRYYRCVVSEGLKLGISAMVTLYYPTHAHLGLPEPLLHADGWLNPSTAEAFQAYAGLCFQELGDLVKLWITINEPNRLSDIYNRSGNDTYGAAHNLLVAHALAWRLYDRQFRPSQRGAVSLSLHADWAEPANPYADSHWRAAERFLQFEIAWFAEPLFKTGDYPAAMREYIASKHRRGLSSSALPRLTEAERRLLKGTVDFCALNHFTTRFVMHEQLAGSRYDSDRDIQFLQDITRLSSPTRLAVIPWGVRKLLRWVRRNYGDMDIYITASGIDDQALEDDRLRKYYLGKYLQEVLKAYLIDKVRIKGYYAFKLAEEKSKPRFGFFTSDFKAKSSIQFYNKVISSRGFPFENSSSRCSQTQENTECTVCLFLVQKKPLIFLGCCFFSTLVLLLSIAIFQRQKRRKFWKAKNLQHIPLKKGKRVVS

| Binder | Mean E max, Luciferase reporter gene assay | Mean EC50, Luciferase reporter gene assay |
| --- | --- | --- |
| B1 | 102% | 0.097 nM |
| B2 | 108% | 0.139 nM |
| B3 | 99% | 0.124 nM |
| B4 | 102% | 0.121 nM |
| B5 | 102% | 0.097 nM |
| B6 | 100% | 0.122 nM |
| B7 | 91% | 0.13 nM |
| B8 | 108% | 0.119 nM |
| B9 | 108% | 0.123 nM |
| B10 | 100% | 0.146 nM |
| B11 | 98% | 0.103 nM |
| B12 | 101% | 0.117 nM |
| B13 | 104% | 0.123 nM |
| B14 | 110% | 0.158 nM |
| B15 | 109% | 0.116 nM |
| B16 | 101% | 0.105 nM |
| B17 | 107% | 0.148 nM |
| B18 | 103% | 0.169 nM |

| Binder | Mean E max, Luciferase reporter gene assay | Mean EC50, Luciferase reporter gene assay |
| --- | --- | --- |
| B19 | 101% | 0.108 nM |
| B20 | 105% | 0.108 nM |
| B21 | 99% | 0.107 nM |
| B22 | 110% | 0.11 nM |
| B23 | 97% | 0.099 nM |
| B24 | 106% | 0.126 nM |
| B25 | 103% | 0.133 nM |
| B26 | 103% | 0.134 nM |
| B27 | 100% | 0.186 nM |
| B28 | 100% | 0.165 nM |
| B29 | 100% | 0.132 nM |
| B30 | 100% | 0.113 nM |
| B31 | 107% | 0.115 nM |
| B32 | 103% | 0.161 nM |
| B33 | 103% | 0.122 nM |
| B34 | 99% | 0.138 nM |
| B35 | 103% | 0.155 nM |
